Measurements taken from patent US20220040319A1 (Regeneron, published 2022).

B1: H4H13302P2 (antibody, human IgG4, V domains shown)
VH: QVQLVESGGGVVQPGRSLRLSCAASGFTFSNFGMHWVRQAPGKGLEWVAGIWFDGSNKNYIDSVKGRFTISRDNSKNTLYLQMNSLRAEDTAVYYCAREGYDSGTDYIPYDIFDIWGQGTMVTVSS
VL: not shown
B2: H4H13301P2 (antibody, human IgG4, V domains shown)
VH: QVQLVESGGGVVQPGTSLRLSCVASGFTFRNFGMHWVRQAPGKGLEWVANIWFDGSNENYVESIQGRFTISRDNSKNTLNLQMNSLRAEDSAVYYCVREGILGTTNPYDAFDVWGQGTMVTVSS
VL: not shown
B3: H1H13301P2 (antibody, IgG1, V domains shown)
VH: B2 VH
VL: not shown
B4: H4H13313P2 (antibody, human IgG4, V domains shown)
VH: QVQLVESGGGVVQPGRSLRLSCSASGFSFSHFGMHWVRQVPGGGLEWVTSIWFDGSNRYYADSLKGRFTISRDNSKNTLYLEMNSLRAEDTAVYYCVREGILGTTNPYDVFDVWGQGTMVTVSS
VL: not shown
B5: H4H13295P2 (antibody, human IgG4, V domains shown)
VH: QVQLVESGGGVVQPGRSLRVSCVVSGFTFSSFGMHWVRQAPDKGLEWVAVIWYDGSNDYYSDSVKGRFTISRDNSKNTLFLQMNRLRAEDTAVYYCARANNWNRFDAFDLWGQGTMVTVSS
VL: not shown
B6: H1H13316P2 (antibody, IgG1, V domains shown)
VH: EVQLVESGGGLVQPGGSLRLSCAASGFTFRSYVMSWFRQAPGKGLEWVSGMSGSGGSTSYADSVKGRFTISRDNSKNTLYLLMNSLRTEDTAVYYCAKENGANWNYGYYGMDVWGQGTTVTVSS
VL: not shown
B7: H4H13291P2 (antibody, human IgG4, V domains shown)
VH: QVQLVESGGGVVQPGGSLRLSCAASGFTFSGYGMHWVRQAPGKGLEWMAVIWYDGSNDYYPDSVKGRFTISRDNSKNTLYLQMNSLRVEDTAVYYCARDAWDLLRSFDYWGQGTLVTVSS
VL: not shown
B8: H4H13306P2 (antibody, human IgG4, V domains shown)
VH: EVQLVESGGGLVQPGTSLRLSCAASGFTFDDYAMHWVRQAPGKGLEWVSGITWNSYNIDYADSVKGRFTISRDNAKNSLYLQMNSLRAEDTALYYCAKDDDYSNYVYFDYWGQGTLVTVSS
VL: not shown

Experiments:
[1] = molecular target: T1, human MET on cells (human, UniProt P08581 25-1390); test: cell-based or functional assay
T1 sequence (P08581 25-1390 limits assumed, form in doubt): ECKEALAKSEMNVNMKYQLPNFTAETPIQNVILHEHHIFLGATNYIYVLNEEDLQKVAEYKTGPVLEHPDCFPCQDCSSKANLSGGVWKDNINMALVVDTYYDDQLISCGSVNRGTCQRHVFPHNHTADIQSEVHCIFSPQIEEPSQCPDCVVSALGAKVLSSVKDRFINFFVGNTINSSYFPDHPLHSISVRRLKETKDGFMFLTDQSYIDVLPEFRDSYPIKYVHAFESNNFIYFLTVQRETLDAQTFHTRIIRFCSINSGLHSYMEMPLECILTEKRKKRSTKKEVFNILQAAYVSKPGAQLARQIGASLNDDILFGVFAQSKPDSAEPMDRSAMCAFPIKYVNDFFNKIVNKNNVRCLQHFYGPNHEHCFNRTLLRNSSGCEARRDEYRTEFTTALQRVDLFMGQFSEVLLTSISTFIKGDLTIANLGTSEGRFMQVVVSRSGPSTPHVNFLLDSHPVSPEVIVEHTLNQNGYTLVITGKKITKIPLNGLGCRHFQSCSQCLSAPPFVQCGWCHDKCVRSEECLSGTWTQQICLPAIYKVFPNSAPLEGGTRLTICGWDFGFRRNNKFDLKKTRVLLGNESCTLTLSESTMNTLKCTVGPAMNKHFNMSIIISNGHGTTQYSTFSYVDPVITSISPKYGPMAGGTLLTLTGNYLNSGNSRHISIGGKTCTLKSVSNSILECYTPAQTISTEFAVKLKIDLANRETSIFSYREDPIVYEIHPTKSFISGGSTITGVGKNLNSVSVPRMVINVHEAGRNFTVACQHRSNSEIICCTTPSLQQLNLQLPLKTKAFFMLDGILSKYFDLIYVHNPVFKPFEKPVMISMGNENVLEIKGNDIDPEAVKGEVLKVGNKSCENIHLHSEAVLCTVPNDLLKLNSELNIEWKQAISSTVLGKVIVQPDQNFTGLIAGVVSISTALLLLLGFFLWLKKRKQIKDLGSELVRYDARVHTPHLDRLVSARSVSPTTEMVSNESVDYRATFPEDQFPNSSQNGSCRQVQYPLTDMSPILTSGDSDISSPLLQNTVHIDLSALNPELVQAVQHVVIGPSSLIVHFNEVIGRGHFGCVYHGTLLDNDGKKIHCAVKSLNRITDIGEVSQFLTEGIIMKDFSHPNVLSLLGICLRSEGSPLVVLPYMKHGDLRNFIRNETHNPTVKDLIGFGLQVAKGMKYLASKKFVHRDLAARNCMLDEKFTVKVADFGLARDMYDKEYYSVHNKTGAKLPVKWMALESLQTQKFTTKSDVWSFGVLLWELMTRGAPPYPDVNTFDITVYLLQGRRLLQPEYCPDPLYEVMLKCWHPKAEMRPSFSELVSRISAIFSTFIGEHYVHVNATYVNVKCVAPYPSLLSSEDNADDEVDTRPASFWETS

[2] = molecular target: T1, human MET on cells; test: cell-based or functional assay; remark: listed apart in the source
Throughout, for % Inhibition, HEK293/SRE-Luc Blocking Activity (HGF, 1 h mAb pre-bind): test concentration or dose not given here.

Binder	% Inhibition, HEK293/SRE-Luc Blocking Activity (HGF, 1 h mAb pre-bind) [1]	Fold Response, Ligand (HGF)-Independent HEK293/SRE-Luc Activation [1]	IC50, HEK293/SRE-Luc Blocking Activity (HGF, 1 h mAb pre-bind) [1]	% Growth Inhibition, SNU5 cells [2]	IC50, SNU5 growth [2]	EC50, Ligand (HGF)-Independent HEK293/SRE-Luc Activation [1]
B1	45%	1.8 fold	1600 pM	40%	110 pM	
B2	40%	1.6 fold	1500 pM	33%	74 pM	
B3	42%	1.4 fold	3300 pM	33%	100 pM	
B4	47%	1.2 fold	2300 pM	34%	44 pM	
B5	70%	2.8 fold	55 pM	30%		300 pM
B6	86%	1.7 fold	40 pM	30%	200 pM	
B7	61%	2.7 fold	130 pM	24%		390 pM
B8				28%	71 pM	13 pM
